# According to patent US20220089698A1 (published 2022):
# Changes are numbered by the printed parent chain.
# B1: 1.12.17-1 (antibody, human IgG1, kappa, V domains shown)
# VH: QVQLLQSGAAVTKPGASVRVSCEASGYNIRDYFIHWVRQAPGQGLQWVGWINPKTGQPNNPRQFQGRVSLTRHASWDFDTFSFYMDLKALRSDDTAVYFCARQRSDYWDFDVWGSGTQVTVSS
# VL: DIQMTQSPSSLSASVGDTVTITCQANGYLNWYQQRRGKAPKLLIYDGSKLERGVPSRFSGRRWGQEYNLTINNLQPEDIATYFCQVYEFFGPGTRLDLKR
# B2: 1.14.17-1 (antibody, human IgG1, kappa, V domains shown)
# VH: B1 VH with I34M, F83A
# VL: B1 VL
# B3: 1.13.17-1 (antibody, human IgG1, kappa, V domains shown)
# VH: B1 VH with I34M
# VL: B1 VL
# B4: 1.29.1-1 (antibody, human IgG1, kappa)
# heavy: QVQLLQSGAAVTKPGASVRVSCEASGYNIRDYFIHWWRQAPGQGLQWVGWINPKTGQPNNPRQFQGRVSLTRHASWDFDTFSFYMDLKALRSDDTAVYFCARQRSDYWDFDVWGQGTQVTVSSASTKGPSVFPLAPSSKSTSGGTAALGCLVKDYFPEPVTVSWNSGALTSGVHTFPAVLQSSGLYSLSSVVTVPSSSLGTQTYICNVNHKPSNTKVDKKVEPKSCDKTHTCPPCPAPELLAGPDVFLFPPKPKDTLMISRTPEVTCVVVDVSHEDPEVKFNWYVDGVEVHNAKTKPREEQYNSTYRVVSVLTVLHQDWLNGKEYKCKVSNKALPLPEEKTISKAKGQPREPQVYTLPPSREEMTKNQVSLTCLVKGFYPSDIAVEWESNGQPENNYKTTPPVLDSDGSFFLYSKLTVDKSRWQQGNVFSCSVLHEALHSHYTQKSLSLSPGK
# light: DIQMTQSPSSLSASVGDTVTITCQANGYLNWYQQRRGKAPKLLIYDGSKLERGVPSRFSGRRWGQEYNLTINNLQPEDIATYFCQVYEFVVPGTRLDLKRTVAAPSVFIFPPSDEQLKSGTASVVCLLNNFYPREAKVQWKVDNALQSGNSQESVTEQDSKDSTYSLSSTLTLSKADYEKHKVYACEVTHQGLSSPVTKSFNRGEC
# B5: 1.1.9-1 (antibody, human IgG1, kappa)
# heavy: B4 heavy with Q115S
# light: B4 light with R52T
# B6: 1.1.22-1 (antibody, human IgG1, kappa)
# heavy: B4 heavy with Q115S
# light: B4 light with V91S, R95N
# B7: 1.13.15-1 (antibody, human IgG1, kappa)
# heavy: B4 heavy with I34M, W37V, Q115S
# light: B4 light with V90F
# B8: 1.1.20-1 (antibody, human IgG1, kappa)
# heavy: B4 heavy with Q115S
# light: B4 light with R95N
# B9: 1.30.1-1 (antibody, human IgG1, kappa)
# heavy: B4 heavy with Q115S, Q118M
# light: B4 light
# B10: 1.1.15-1 (antibody, human IgG1, kappa)
# heavy: B4 heavy with Q115S
# light: B4 light with V90F
# B11: 1.1.13-1 (antibody, human IgG1, kappa)
# heavy: B4 heavy with Q115S
# light: B4 light with R61S, N68T, N72S, N73S
# B12: 1.1.18-1 (antibody, human IgG1, kappa)
# heavy: B4 heavy with Q115S
# light: B4 light with V91S
# B13: 1.1.4-1 (antibody, human IgG1, kappa)
# heavy: B4 heavy with Q115S
# light: B4 light with T18R
# B14: 1.1.16-1 (antibody, human IgG1, kappa)
# heavy: B4 heavy with Q115S
# light: B4 light with V91G
# B15: 1.1.7-1 (antibody, human IgG1, kappa)
# heavy: B4 heavy with Q115S
# light: B4 light with K49N
# B16: 1.1.25-1 (antibody, human IgG1, kappa)
# heavy: B4 heavy with Q115S
# light: B4 light with R95N, L96V
# B17: 1.1.11-1 (antibody, human IgG1, kappa)
# heavy: B4 heavy with Q115S
# light: B4 light with R61S, N68T
# B18: 1.1.28-1 (antibody, human IgG1, kappa)
# heavy: B4 heavy with Q115S
# light: B4 light with R95N, L96V, L98I
# B19: 1.1.30-1 (antibody, human IgG1, kappa)
# heavy: B4 heavy with Q115S
# light: B4 light with V91T, R95N, L96V, L98I
# B20: 1.1.19-1 (antibody, human IgG1, kappa)
# heavy: B4 heavy with Q115S
# light: B4 light with V91T
# B21: 1.1.21-1 (antibody, human IgG1, kappa)
# heavy: B4 heavy with Q115S
# light: B4 light with V91G, R95N
# B22: 1.1.6-1 (antibody, human IgG1, kappa)
# heavy: B4 heavy with Q115S
# light: B4 light with G47A
# B23: 1.1.23-1 (antibody, human IgG1, kappa)
# heavy: B4 heavy with Q115S
# light: B4 light with V91T, R95N
# B24: 1.1.29-1 (antibody, human IgG1, kappa)
# heavy: B4 heavy with Q115S
# light: B4 light with V91G, R95N, L96V, L98I
# B25: 1.1.10-1 (antibody, human IgG1, kappa)
# heavy: B4 heavy with Q115S
# light: B4 light with N68T
# B26: 1.1.2-1 (antibody, human IgG1)
# heavy: B4 heavy with Q115S
# VL: DIQMTQSPSSLSASVGDTVTITCQANGYLNWYQQKPGKAPKLLIYDGSKLERGVPSRFSGRRWGQEYNLTINNLQPEDIATYFCQVYEFVVPGTKVDIK
# B27: 1.1.26-1 (antibody, human IgG1, kappa)
# heavy: B4 heavy with Q115S
# light: B4 light with L98I
# B28: 1.1.24-1 (antibody, human IgG1, kappa)
# heavy: B4 heavy with Q115S
# light: B4 light with L96V
# B29: 1.1.5-1 (antibody, human IgG1, kappa)
# heavy: B4 heavy with Q115S
# light: B4 light with R35K, R36P
# B30: 1.1.12-1 (antibody, human IgG1, kappa)
# heavy: B4 heavy with Q115S
# light: B4 light with N72S, N73S
# B31: 1.1.27-1 (antibody, human IgG1, kappa)
# heavy: B4 heavy with Q115S
# light: B4 light with L96V, L98I
# B32: 1.1.8-1 (antibody, human IgG1, kappa)
# heavy: B4 heavy with Q115S
# light: B4 light with G47A, K49N
# B33: 1.1.3-1 (antibody, human IgG1, kappa)
# heavy: B4 heavy with Q115S
# light: B4 light with D1E
# B34: 1.1.17-1 (antibody, human IgG1, kappa)
# heavy: B4 heavy with Q115S
# light: B4 light with V90F, V91G
# B35: 1.12.15-1 (antibody, human IgG1, kappa)
# heavy: B4 heavy with W37V, Q115S
# light: B4 light with V90F
# Target: HIV gp120 CAAN (HIV)
# Experiment: single-point ELISA; further: test concentration or dose not given here
row,Binder,ELISA (A450)
1,B1,0.84 A450
2,B2,0.43 A450
3,B3,0.78 A450
4,B4,1.08 A450
5,B5,0.93 A450
6,B6,1.02 A450
7,B7,0.6 A450
8,B8,0.95 A450
9,B9,1.05 A450
10,B10,0.79 A450
11,B11,1.11 A450
12,B12,0.92 A450
13,B13,1.09 A450
14,B14,0.99 A450
15,B15,1 A450
16,B16,0.92 A450
17,B17,1.03 A450
18,B18,0.93 A450

row,Binder,ELISA (A450)
1,B19,0.86 A450
2,B20,1.05 A450
3,B21,0.99 A450
4,B22,0.46 A450
5,B23,0.95 A450
6,B24,1.01 A450
7,B25,1.1 A450
8,B26,0.93 A450
9,B27,1.07 A450
10,B28,0.98 A450
11,B29,0.9 A450
12,B30,1.02 A450
13,B31,0.99 A450
14,B32,0.5 A450
15,B33,1 A450
16,B34,0.9 A450
17,B35,0.63 A450

# Target: HIV gp120 Bal (HIV)
# Experiment: single-point ELISA; further: test concentration or dose not given here
row,Binder,ELISA (A450)
1,B1,0.9 A450
2,B2,0.89 A450
3,B3,1.02 A450
4,B4,1.03 A450
5,B5,0.98 A450
6,B6,0.88 A450
7,B7,0.7 A450
8,B8,0.94 A450
9,B9,0.81 A450
10,B10,0.93 A450
11,B11,0.94 A450
12,B12,0.92 A450
13,B13,0.96 A450
14,B14,1.06 A450
15,B15,0.95 A450
16,B16,0.9 A450
17,B17,0.92 A450
18,B18,0.98 A450

row,Binder,ELISA (A450)
1,B19,0.9 A450
2,B20,1.03 A450
3,B21,0.98 A450
4,B22,0.91 A450
5,B23,0.9 A450
6,B24,0.91 A450
7,B25,0.94 A450
8,B26,0.95 A450
9,B27,0.96 A450
10,B28,0.88 A450
11,B29,0.9 A450
12,B30,1.05 A450
13,B31,0.97 A450
14,B32,1.01 A450
15,B33,0.97 A450
16,B34,1.02 A450
17,B35,0.69 A450
